The target in assay [1] is T1, polypeptide GC3pep (human).
T1 construct: also called membrane proximal polypeptide GC3pep
T1 peptide: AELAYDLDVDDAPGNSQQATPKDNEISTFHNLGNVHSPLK
Nature of the assay: ELISA, GC3pep coated, antibody 0.1 nM.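 Further: antibody allowed to bind the coated plate 2 h at 37 °C, then detected via HRP-conjugated secondary antibody and TMB development for 10 min, stopped with HCl.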 In general terms: An ELISA detects its analyte on a solid surface through an enzyme-linked reagent.

Assay [2] addresses T1, polypeptide GC3pep. Nature of the assay: ELISA, GC3pep coated, antibody 10 nM.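 Further: antibody bound to the coated peptide for 2 h at 37 °C, detected through an HRP-conjugated secondary antibody with TMB colour development stopped by acid.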
In assay [3] the target is T1, polypeptide GC3pep. Kind of assay: ELISA, GC3pep coated, antibody 100 nM.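 Further: detection with an HRP-conjugated secondary antibody and TMB substrate, color reaction stopped with HCl before absorbance reading.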
Assay [4] addresses T1, polypeptide GC3pep. Nature of the assay: ELISA, GC3pep coated, antibody 1 nM.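 Further: bound antibody detected with an HRP-conjugated secondary antibody and TMB substrate, reaction stopped with HCl, after 2 h binding at 37 °C.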
Assay [5] concerns the target T1, polypeptide GC3pep. Kind of assay: ELISA, GC3pep coated, antibody 0.001 nM.
Assay [6] has as its target T1, polypeptide GC3pep. Nature of the assay: ELISA, GC3pep coated, antibody 0.01 nM.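 Further: bound antibody detected with an HRP-conjugated secondary antibody and TMB substrate, color reaction stopped with HCl before reading absorbance.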
The target in assay [7] is T1, polypeptide GC3pep. Nature of the assay: ELISA, GC3pep coated, antibody 0.0001 nM.
Assay [8] concerns the target T2, murine GPC3-His protein (Sino Biological, Cat. No. 50989-M08B) (murine, UniProt Q8CFZ4 25-558).
T2 construct: Bought protein; also called murine GPC3 protein; mouse GPC3-his protein; not shown: His tag
Kind of assay: ELISA, coated antigen.

T2 sequence (Q8CFZ4 25-558 limits assumed): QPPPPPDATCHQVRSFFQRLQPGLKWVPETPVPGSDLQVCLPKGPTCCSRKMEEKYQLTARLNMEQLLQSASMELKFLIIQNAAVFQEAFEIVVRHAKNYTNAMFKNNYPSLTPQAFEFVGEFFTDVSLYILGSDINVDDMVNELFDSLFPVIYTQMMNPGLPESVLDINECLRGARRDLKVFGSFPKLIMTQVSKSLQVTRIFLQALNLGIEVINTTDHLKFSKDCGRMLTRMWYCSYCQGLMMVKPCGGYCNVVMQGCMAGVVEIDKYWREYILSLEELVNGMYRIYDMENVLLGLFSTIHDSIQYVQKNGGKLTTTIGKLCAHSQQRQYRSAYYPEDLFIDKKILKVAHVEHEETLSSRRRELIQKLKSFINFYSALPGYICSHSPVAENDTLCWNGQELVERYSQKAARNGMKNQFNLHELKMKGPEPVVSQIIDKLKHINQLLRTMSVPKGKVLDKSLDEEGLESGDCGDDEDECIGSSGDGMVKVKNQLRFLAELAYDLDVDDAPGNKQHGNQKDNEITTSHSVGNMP

B1: F4.13.7 (antibody, human IgG1, kappa, V domains shown)
VH: QVQLQQPGAELVKPGASVKLSCKASGYTFTNNWVHWVKQRPGQGLEWTGMIHPDSGSTIYNEKFQSKATLTVDKSSSTAYMQLSSLTSEDSAVYYCARGYYDSSSYYAMDYWGQGTSVTVSS
VL: NIQMTQTTSSLSASLGDRVTISCSASQGIFNYLNWYQQKPDGTVKLLIYYTSSLHSGVPSRFSGSGSGTDYSLTISNLEPEDIATYYCQQYSKLPWTFGGGTKLEIKR
notes: human-murine chimeric antibody
As to B1, the OD450 nm in assay [1] is 0.03 OD450 nm; in assay [2], 0.04 OD450 nm; in assay [3] it was 0.06 OD450 nm; in assay [4], 0.03 OD450 nm; in assay [5], 0.08 OD450 nm; in assay [6] it was 0.04 OD450 nm. The molecule also came in with an OD450 nm in assay [7] of 0.05 OD450 nm.

B2: F2.154.1 (antibody, human IgG1, kappa, V domains shown)
VH: QVQLQQSGAELVRPGASVKLSCKASGYRFTDYEMHWVKQTPVHGLEWIGTIDPETGNTAYTQKFMDKATLTADKSSSTAYMELRSLTSEDSAVYYCTRGYSFTYWGQGTLATVSA
VL: DVLMTQTPLSLPVSLGDQASISCRSSQNIVHSNGNTYLQWYLQKPGQSPKLLIFKVSNRFSGVPDRFSGSGSGTDFTLKISRVEAEDLGVYYCFQGSHVPFTFGTGTKLEIKR
notes: as for B1
For the molecule B2, the OD450 nm was 1.13 OD450 nm in assay [1]; 2.42 OD450 nm in assay [2]; 2.73 OD450 nm in assay [3]; 2.29 OD450 nm in assay [4]; 0.06 OD450 nm in assay [5]; 0.2 OD450 nm in assay [6]. This molecule also yielded an OD450 nm in assay [7] of 0.05 OD450 nm.

B3: F3.81.19 (antibody, human IgG1, kappa, V domains shown)
VH: QVQLQQSGAELVRPGASVKLSCKASGYTFTDYEMHWVKQTPVHGLEWIGTIDPETGNTAYNQKFKGKATLTADKSSSTAYMELRSLTSEDSAVYYCTRPYSLTYWGQGTLVTVSA
VL: DVLLTQTPLSLPVSLGDQASISCRSSQSFVHSNGDTYLQWYLQKPGQSPKLLIYKVSNRFSGVPDRFSGSGSGTDFTLKISRVEAEDLGVYYCFQGSHVPYTFGSGTKLEIKR
notes: as for B1
Turning to B3, the OD450 nm stood at 0.19 OD450 nm in assay [1]; 2.88 OD450 nm in assay [2]; 2.94 OD450 nm in assay [3]; 1.21 OD450 nm in assay [4]; 0.05 OD450 nm in assay [5]; 0.05 OD450 nm in assay [6]. In assay [7], this molecule had an OD450 nm of 0.05 OD450 nm.

B4: F2.169.2 (antibody, human IgG1, kappa, V domains shown)
VH: EVQLVETGGGLVQPKGSLKLSCAASGFSFNTNAMNWVRQAPGKGLEWVARIRSKSNNYATYYADSVKDRFTISRDDSQSMLYLQMNNLKTEDTAMYYCVRDGYYVLFAYWGQGTLVTVSA
VL: DVLMTQTPLSLPVSLGDQASISCRFSQSIVNSNGNTYLEWFLQKPGQSPKLLIYKVSNRFSGVPDRFSGSGSGTDFTLKISRVEAEDLGVYYCFQGSHVPFTFGTGTKLEIKR
notes: as for B1
For the molecule B4, the OD450 nm in assay [1] was determined as 1.25 OD450 nm; in assay [2], 2.38 OD450 nm; in assay [3], 2.73 OD450 nm; in assay [4], 2.36 OD450 nm; in assay [5] it was 0.06 OD450 nm; in assay [6] it was 0.24 OD450 nm. This molecule yielded an OD450 nm in assay [7] of 0.05 OD450 nm.

B5: F2.154.1 human-murine chimeric antibody (antibody, human IgG1, kappa, V domains shown)
VH: QVQLQQSGAELVRPGASVKLSCKASGYRFTDYEMHWVKQTPVHGLEWIGTIDPETGNTAYTQKFMDKATLTADKSSSTAYMELRSLTSEDSAVYYCTRGYSFTYWGQGTLATVSA
VL: DVLMTQTPLSLPVSLGDQASISCRSSQNIVHSNGNTYLQWYLQKPGQSPKLLIFKVSNRFSGVPDRFSGSGSGTDFTLKISRVEAEDLGVYYCFQGSHVPFTFGTGTKLEIKR
notes: Chimeric
B5: in assay [8], the binding result is on record as “no binding (tested: 100 nM)”.

B6: F4.21.16 (antibody, human IgG1, kappa, V domains shown)
VH: DVQLQESGPGLVKPSQSLSLTCSVTGYSITSGYYWNWIRQFPGNKLEWMGYISYDVTVNYNPSLKNRISITRDTSKNQFFLKLNSVTTEDTATYYCATITSVASMDHWGQGTSVTVSS
VL: DILMTQTPLSLPVSLGDQASISCRSSQNIVHRNGNTYLEWYLQKPGQSPKLLLYKVSNRFSGVPDRFSGSGSGTDFTLKISRVEAEDLGIYYCFQGSHFPFTFGSGTKLEIKR
notes: as for B1
For B6, the OD450 nm in assay [1] worked out at 0.03 OD450 nm; in assay [2], 0.04 OD450 nm; in assay [3], 0.08 OD450 nm; in assay [4] it was 0.03 OD450 nm; in assay [5] it was 0.04 OD450 nm; in assay [6], 0.04 OD450 nm. Also, in assay [7], the OD450 nm turned out to be 0.04 OD450 nm.

B7: F3.38.7 (antibody, human IgG1, kappa, V domains shown)
VH: QVQLQQSGAELVRPGASVKLSCKASGYTFTDYEIHWVKQTPVLGLEWIGAIDPKTGNTAYNQKFMGKATLTADKSSTTAYMDLRSLTSEDSAVYYCTRYFSFAYWGQGTLVTVSA
VL: DVLMTQTPLSLPVSLGDQASISCRSSQTFVHSNGNTYLQWYLQKPGQSPKLLIYKVSNRFSGVPDRFSGSGSGTDFTLKISRVEAEDLGVYYCFQGSHVPYTFGSGTKLEIKR
notes: as for B1
Take B7: the OD450 nm in assay [1] is 1.01 OD450 nm; in assay [2], 2.83 OD450 nm; in assay [3] it was 3.22 OD450 nm; in assay [4], 2.57 OD450 nm; in assay [5] it was 0.06 OD450 nm; in assay [6], 0.19 OD450 nm. Besides, in assay [7], the OD450 nm worked out at 0.05 OD450 nm.

B8: F2.152.3 (antibody, human IgG1, kappa, V domains shown)
VH: EVQLQQSGPELVKPGASVKMSCKASGYTFTDYYMTWVKQSHGKSLEWIGRVNPRNGDTTYNQKFEGRATLTLDKSLSTAFMQLNSLTSEDSAVYYCINSKGHFDYWGQGTTLTVSS
VL: DVLMTQTPLSLPVSLGDQASISCRSSQSIVHSNGNTYLEWFLQKPGQSPKSLIYKVSNRFSGVPDRFSGSGSGTDFTLKISRVEAEDLGVYYCFQGSHVPPTFGAGTKLELKR
notes: as for B1
As for B8, the OD450 nm in assay [1] was 1.53 OD450 nm; in assay [2], 2.43 OD450 nm; in assay [3] it was 2.63 OD450 nm; in assay [4], 2.18 OD450 nm; in assay [5] it was 0.09 OD450 nm; in assay [6] it was 0.35 OD450 nm. Further, the OD450 nm in assay [7] worked out at 0.05 OD450 nm.

B9: F2.23.8 (antibody, human IgG1, kappa, V domains shown)
VH: QVQLQQSGAELVRPGASVKLSCKASGYTFTDYEMHWVKQTPVHGLEWFGAIDPETGGTAYNQKFRAKATLTADKSSSTAYMELRSLTSEDSAVYYCTRFYSFAYWGQGTLVTVSA
VL: DVVMTQTPLSLPVSLGDQASISCRSSQSLVHSNGNTYLQWYLQKPGQSPKLLIYKVSNRFSGVPDRFSGSGSGTDFTLKITRVEAEDLGVYFCSQSTHVPYTFGSGTKLEIKR
notes: as for B1
Regarding B9, the OD450 nm in assay [1] was found to be 1.38 OD450 nm; in assay [2] it was 2.42 OD450 nm; in assay [3], 2.51 OD450 nm; in assay [4], 2.12 OD450 nm; in assay [5], 0.1 OD450 nm; in assay [6], 0.3 OD450 nm. Besides, the OD450 nm in assay [7] was determined as 0.07 OD450 nm.

B10: F2.39.2 (antibody, human IgG1, kappa, V domains shown)
VH: QVQLQQSGAELVRPGASVKVSCKASGYTFTDYEMHWMKQTPVHGLEWIGANEPETGRSAYDQKFKGKATLTADKSSSTAYMELRSLTSEDSAVYYCTRFYSFAYWGQGTLVTVSA
VL: DVVMTQTPLSLPVSLGDQASISCRSSQGLVHNNGNTYLHWYLQKPGQSPKLLIYKVSNRFSGVPDRFSGSGSGTDFTLKISRVEAEDLGVYFCSQNTHVPPTFGGGTKLEIKR
notes: as for B1
For B10, the OD450 nm was found to be 1.35 OD450 nm in assay [1]; 2.38 OD450 nm in assay [2]; 2.58 OD450 nm in assay [3]; 2.21 OD450 nm in assay [4]; 0.09 OD450 nm in assay [5]; 0.32 OD450 nm in assay [6]. Moreover, the OD450 nm in assay [7] worked out at 0.05 OD450 nm.

B11: F2.39.2 human-murine chimeric antibody (antibody, human IgG1, kappa, V domains shown)
VH: QVQLQQSGAELVRPGASVKVSCKASGYTFTDYEMHWMKQTPVHGLEWIGANEPETGRSAYDQKFKGKATLTADKSSSTAYMELRSLTSEDSAVYYCTRFYSFAYWGQGTLVTVSA
VL: DVVMTQTPLSLPVSLGDQASISCRSSQGLVHNNGNTYLHWYLQKPGQSPKLLIYKVSNRFSGVPDRFSGSGSGTDFTLKISRVEAEDLGVYFCSQNTHVPPTFGGGTKLEIKR
notes: Chimeric
Regarding B11, in assay [8], the binding result is “no binding (tested: 100 nM)”.

B12: F2.92.1 (antibody, human IgG1, kappa, V domains shown)
VH: QVQLQQSGAELVRPGASVKLSCKASGYIFSDYEIHWVKQTPVHGLECIGAVDPETGGTAYNQKFKGKATLTADKSSSTAYMELRSLTSEDSAVYFCTRFYSFAYWGQGTLVTVST
VL: DVVMTQTPLSLPVSLGDQGSISCRSSQSLVHSNGNTYLQWYLQKPGQSPKLLIYKVSNRFSGVPDRFSGSGSGTDFTLKISRVEAEDLGVYFCCQSTHVLPTFGGGTKLEIKR
notes: as for B1
For B12, the OD450 nm worked out at 0.85 OD450 nm in assay [1]; 2.28 OD450 nm in assay [2]; 2.41 OD450 nm in assay [3]; 1.92 OD450 nm in assay [4]; 0.07 OD450 nm in assay [5]; 0.15 OD450 nm in assay [6]. Besides, the OD450 nm in assay [7] was determined as 0.05 OD450 nm.

B13: F3.54.12 (antibody, human IgG1, kappa, V domains shown)
VH: QVQLQQSGAELVRPGASVKLSCKASGYTFTDYEMHWVKQTPVHGLEWIGAIDPETGNTAYIQKFKGKATLTTDKSSSTAYMELRSLTSEDSAVYYCTRFYSYSHWGQGTTLTVSS
VL: DVVMTQTPLSLPVSLGDQASISCRSSQSLVHSNGNTYLHWYLQKPGQSPKLLIYKVSNRFSGVPDRFSGSSSGTDFTLKISRVEAEDLGVYFCSQNTHVPPTFGGGTKLEIKR
notes: as for B1
For the molecule B13, the OD450 nm in assay [1] came out at 1.63 OD450 nm; in assay [2], 2.8 OD450 nm; in assay [3], 3.03 OD450 nm; in assay [4], 2.64 OD450 nm; in assay [5] it was 0.09 OD450 nm; in assay [6] it was 0.33 OD450 nm. In addition, the OD450 nm in assay [7] was determined as 0.07 OD450 nm.

B14: F4.18.4 (antibody, human IgG1, kappa, V domains shown)
VH: QVQLHQSGAEMAKPGASVNLSCKTSGFTFTDYGISWVKQRTRQGLEWIGDIYPRHINIYYNEKFKDKATLTADRSSSTAYMELRSMTSEDSAVYFCARRGTTGRGALDYWGQGTSLTVSS
VL: DILLTQSPAILSVSPGERVSFSCRASQSIGTSIHWYQQRTNGSPRLLIKYAFESISGIPSRFGGSGSRTDFTLTINSVESEDIADYYCQQTYNWPYTFGGGTKLEIKR
notes: as for B1
Consider B14, for which the OD450 nm in assay [1] is 0.03 OD450 nm; in assay [2], 0.03 OD450 nm; in assay [3] it was 0.06 OD450 nm; in assay [4] it was 0.03 OD450 nm; in assay [5], 0.04 OD450 nm; in assay [6] it was 0.04 OD450 nm. Further, the OD450 nm in assay [7] worked out at 0.04 OD450 nm.

Source of the values: patent publication US20260116991A1 (HAINAN SIMCERE ZAIMING PHARMACEUTICAL, published 2026).
